Article PMC11996858, “Cathepsin K cleavage of angiopoietin-2 creates detrimental Tie2 antagonist fragments in sepsis” (The Journal of Clinical Investigation, 2025)

Target: the molecule itself
Assay: non-reducing SDS-PAGE with Western blot; recombinant ANGPT2 incubated with CM-Mq^Veh or CM-Mq^LPS (serum-free conditioned media of RAW264.7 cells), then SDS-PAGE under nonreducing conditions against reduced conditions (10% beta-mercaptoethanol) and Western analysis for ANGPT2

B1: recombinant human angiopoietin-2, full length (ligand, UniProt O15123 19-496, looked up)
chain: YNNFRKSMDSIGKKQYQVQHGSCSYTFLLPEMDNCRSSSSPYVSNAVQRDAPLEYDDSVQRLQVLENIMENNTQWLMKLENYIQDNMKKEMVEIQQNAVQNQTAVMIEIGTNLLNQTAEQTRKLTDVEAQVLNQTTRLELQLLEHSLSTNKLEKQILDQTSEINKLQDKNSFLEKKVLAMEDKHIIQLQSIKEEKDQLQVLVSKQNSIIEELEKKIVTATVNNSVLQKQQHDLMETVNNLLTMMSTSNSAKDPTVAKEEQISFRDCAEVFKSGHTTNGIYTLTFPNSTEEIKAYCDMEAGGGGWTIIQRREDGSVDFQRTWKEYKVGFGNPSGEYWLGNEFVSQLTNQQRYVLKIHLKDWEGNEAYSLYEHFYLSSEELNYRIHLKGLTGTAGKISSISQPGNDFSTKDGDNDKCICKCSQMLTGGWWFDACGPSNLNGMYYPQRQNTNKFNGIKWYYWKGSGYSLKATTMMIRPADF
notes: angiopoietin-2 (ANGPT2), human, recombinant full-length protein of about 75 kDa (glycosylated); As a secreted recombinant protein it probably lacks the signal peptide (surmised); also called ANGPT2; full-length ANGPT2; source: bought: R&D Systems
**Q.** Which “stoichiometry N” value does the source give for B1 here?
**A.** The value was no less than 2.
